Measured values published in the supplement of paper PMC9732359.
± gives the uncertainty stated by the source.

Test: protein stability index of a GFP-peptide fusion (yeast GPS) (PSI 1-4); higher = more stable; sorted into four equal gates, so the index is relative within each strain
In short: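 Tiled 17-residue peptides from yeast proteins were fused downstream of GFP on a plasmid that also expresses Cherry, and the pooled library was carried in yeast. Mid-log cultures grown in leucine-free medium were sorted into four equal gates by GFP/Cherry fluorescence ratio. Plasmids from each gate were PCR-amplified and Illumina-sequenced, and reads were assigned to strains by barcodes. Each peptide's protein stability index is the sum, over gates, of the gate's read frequency multiplied by its gate number.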

Sequence | protein stability index (doa10∆) | protein stability index (pdr5∆) | protein stability index (san1∆) | protein stability index (ubr1∆)
LSFVDIVLSKAASALDE [SIR4] | 1.84 ± 0.11 | 2.8 ± 0.071 | 2.59 ± 0.14 | 2.21 ± 0.054
LSLDSDVKFPSNTTTQI [SMC3] | 2.9 ± 0.25 | 3.37 ± 0.14 | 2.81 ± 0.15 | 3.32 ± 0.18
LSLHENYPQDEINAVFN [POP1] | 2.97 ± 0.067 | 3.11 ± 0.056 | 3.05 ± 0.04 | 3 ± 0.059
LSPSDQFAPAFLNTPNN [SSN2] | 1.96 ± 0.069 | 2.23 ± 0.1 | 2.06 ± 0.13 | 2.44 ± 0.098
LSSETGIKLALDPNLIT [SRB4] | 2.6 ± 0.052 | 3 ± 0.054 | 2.92 ± 0.056 | 2.51 ± 0.034
LSSGESNEIKVTNDLDT [SIR4] | 2.94 ± 0.16 | 2.97 ± 0.12 | 2.88 ± 0.22 | 2.52 ± 0.08
LSSIEASLKIKNATDLQ [SMC3] | 1.84 ± 0.064 | 2.06 ± 0.091 | 2.56 ± 0.12 | 2.4 ± 0.077
LSTLRMEADPSLHPLFE [RPN9] | 2.54 ± 0.057 | 2.33 ± 0.042 | 2.18 ± 0.096 | 2.41 ± 0.044
LSTRELAGKVGSIRVHK [RPC53] | 1.61 ± 0.18 | 1.26 ± 0.11 |  | 
LSVDDIRGAVGNSEAIP [RTT102] | 3.35 ± 0.053 | 3.38 ± 0.057 | 3.3 ± 0.056 | 3.41 ± 0.047
LTCLPVPPPPVRPSISF [RPO21] | 2.28 ± 0.03 | 2.44 ± 0.031 | 2.36 ± 0.033 | 2.33 ± 0.026
LTFMTCNSLHIPQDFEN [ESC2] | 2.17 ± 0.045 | 2.46 ± 0.047 | 2.19 ± 0.089 | 2.66 ± 0.04
LTFQPQQQTNALNGIDI [GRR1] | 2.84 ± 0.067 | 3.07 ± 0.075 | 3.02 ± 0.082 | 3.1 ± 0.056
LTGEATANALPLPAVFS [RPL4A] | 2.02 ± 0.052 | 2.36 ± 0.047 | 2.35 ± 0.068 | 2.71 ± 0.038
LTHRLGGDTCSSDGALC [POP1] | 2.96 ± 0.11 | 3.39 ± 0.084 | 3.17 ± 0.12 | 3.19 ± 0.054
LTIDDLGVASFHGTSTK [FAS2] | 2.99 ± 0.063 | 3.01 ± 0.071 | 3.03 ± 0.06 | 3.01 ± 0.047
LTKTTVNISAVDNTTEQ [YCG1] | 3.25 ± 0.11 | 3.29 ± 0.14 | 2.88 ± 0.1 | 3.24 ± 0.098
LTKYKEMERIVKNLTKY [SRP68] | 2.96 ± 0.069 | 2.85 ± 0.073 | 2.82 ± 0.04 | 2.78 ± 0.041
LTLRKAKAPSGLDQSRI [FAS1] | 3.05 ± 0.12 | 2.98 ± 0.11 | 3.17 ± 0.12 | 3.13 ± 0.081
LTLYLFQDYLTQQAVNL [IRR1] | 2.15 ± 0.095 | 1.91 ± 0.067 | 2.06 ± 0.15 | 2.17 ± 0.099
LTNDTFEKKLSIIKAKL [YML103C/NUP188] | 2.8 ± 0.11 | 2.99 ± 0.23 | 2.43 ± 0.21 | 3.3 ± 0.19
LTNILRMMGCVKKQKSA [FAS2] | 1.91 ± 0.068 | 2.1 ± 0.078 | 1.81 ± 0.12 | 1.35 ± 0.066
LTPNEIKELEHLHDAVF [SWP82] | 2.95 ± 0.072 | 3.18 ± 0.075 | 3.13 ± 0.055 | 2.95 ± 0.052
LTVAMYINSDSVNPAML [RPO31] | 2.4 ± 0.11 | 2.47 ± 0.11 | 2.69 ± 0.14 | 2.68 ± 0.082
LTYDRLEFATIRKGAND [PRE9] |  |  | 2.62 ± 0.24 | 
LVDILPPDSDSSISVMG [RPT3] | 2.23 ± 0.068 | 2.27 ± 0.063 | 2.24 ± 0.065 | 2.72 ± 0.055

Sequence | protein stability index (doa10∆) | protein stability index (pdr5∆) | protein stability index (san1∆) | protein stability index (ubr1∆)
LVDTPSNNTAATADTTH [NUT1] |  |  | 3.21 ± 0.059 | 3.17 ± 0.082
LVEAAKLLKIPKFISEA [YDL116W/NUP84] | 2.65 ± 0.081 | 2.61 ± 0.064 | 2.46 ± 0.088 | 2.76 ± 0.042
LVEEKTPGLTFNAIDLA [RPC82] | 3.23 ± 0.12 | 3.29 ± 0.11 | 3.25 ± 0.057 | 3.27 ± 0.086
LVIGIFKRDLLREKEDK [YJL039C/NUP192] | 2.95 ± 0.098 | 2.28 ± 0.11 | 2.86 ± 0.069 | 2.34 ± 0.1
LVKALEDIMVHYDNTTR [RPO21] | 1.46 ± 0.061 | 1.91 ± 0.062 | 1.32 ± 0.086 | 1.68 ± 0.072
LVLLNGRLRNKSHKQTI [RPP1] | 2.65 ± 0.088 | 2.85 ± 0.059 | 2.98 ± 0.047 | 2.97 ± 0.061
LVLYDAENDVIEATDLG [BRR2] | 3.29 ± 0.13 | 3.26 ± 0.12 | 3.45 ± 0.092 | 3.24 ± 0.066
LVQLEPHLFVNGDLTVS [SSN2] | 1.77 ± 0.1 | 1.9 ± 0.069 | 1.53 ± 0.16 | 1.5 ± 0.16
LVQLKKFSDLKFILQIL [YML103C/NUP188] | 2.15 ± 0.08 | 1.91 ± 0.075 | 2.34 ± 0.11 | 1.44 ± 0.059
LVSANNDNNSPHTPVTR [YLR018C/POM34] | 2.63 ± 0.12 | 2.85 ± 0.072 | 2.92 ± 0.08 | 2.95 ± 0.12
LVSMRYPEDKKTQQNEK [RPN3] |  |  | 3.24 ± 0.039 | 3.12 ± 0.12
LVSSYLNKSDLLDKYGK [YML103C/NUP188] | 2.87 ± 0.091 | 3.13 ± 0.058 | 3.17 ± 0.053 | 2.89 ± 0.065
LVVRFTNKDIICQIISS [RPL5] | 1.62 ± 0.055 | 1.79 ± 0.062 | 1.25 ± 0.18 | 1.67 ± 0.051
LWDQDIAIAGTGQIEGL [COR1] | 3.12 ± 0.089 | 3.37 ± 0.077 | 3.05 ± 0.055 | 2.98 ± 0.05
LWINYIKELLNITKNLK [POP4] | 1.34 ± 0.071 | 1.56 ± 0.062 | 1.62 ± 0.11 | 1.78 ± 0.054
LWSGKQILSVAIPNGIH [RPO21] | 1.57 ± 0.066 | 1.59 ± 0.051 | 1.37 ± 0.088 | 1.71 ± 0.087
LYDRPLKPDLNKITNQG [NAS6] | 3.22 ± 0.096 | 3.42 ± 0.1 | 3.11 ± 0.07 | 3.4 ± 0.073
LYEKDIVPSMTHLEIEP [RET1] | 2.68 ± 0.098 | 2.65 ± 0.089 | 2.73 ± 0.09 | 2.85 ± 0.053
LYGLNLTLRKAKAPSGL [FAS1] | 2.92 ± 0.089 | 2.17 ± 0.12 | 3.53 ± 0.068 | 2.42 ± 0.15
LYKIFSYALSMEKDKLK [SNU114] | 1.84 ± 0.097 | 1.33 ± 0.052 | 1.63 ± 0.17 | 1.65 ± 0.049
LYPDSSSFKKNLLKFIT [RPN3] | 1.19 ± 0.075 | 1.26 ± 0.069 | 1.05 ± 0.13 | 1.25 ± 0.18
LYQTYHVLVGDLIKFSA [FAS1] | 2.2 ± 0.05 | 2.43 ± 0.052 | 2.39 ± 0.044 | 2.31 ± 0.035
LYSGLIIDEIITQMRVN [RPC82] | 2.12 ± 0.078 | 2.36 ± 0.094 | 2.71 ± 0.2 | 1.58 ± 0.068
LYTLVINDAGKAKKLIQ [RPL38] | 2.06 ± 0.11 | 2.19 ± 0.098 | 1.99 ± 0.1 | 1.56 ± 0.13
MACNFQFPEIAYPGKLI [CSL4] | 2.88 ± 0.12 | 2.9 ± 0.12 | 2.76 ± 0.12 | 2.62 ± 0.16
